Assay results: US20200024330A1

What was measured:
Assay in all cases: cell-based or functional assay
[1] = biological target: HIV-1 Env of isolate DU422 (HIV-1)
[2] = biological target: HIV-1 Env of isolate AC10 (HIV-1)
[3] = biological target: HIV-1 ADA Env (pseudovirus) (HIV-1 ADA)
[4] = biological target: HIV-1 Env of isolate ZM249 (HIV-1)
[5] = biological target: HIV-1 Env of isolate THRO.18 (HIV-1)
[6] = biological target: HIV-1 92RW020 Env (pseudovirus) (HIV-1 92RW020)
[7] = biological target: HIV-1 Env of isolate PVO.4 (HIV-1)
[8] = biological target: MuLV envelope protein (control pseudovirus) (MuLV)
[9] = biological target: HIV-1 Env of isolate ZM214 (HIV-1)
[10] = biological target: HIV-1 Env of isolate CAP45 (HIV-1)
[11] = biological target: HIV-1 JR-CSF Env, wild type (pseudovirus) (HIV-1 JR-CSF) (UniProt P20871)
[12] = biological target: HIV-1 JR-CSF Env Y318A (pseudovirus) (HIV-1 JR-CSF) (UniProt P20871)
[13] = biological target: HIV-1 Env of isolate Du172 (HIV-1)
[14] = biological target: HIV-1 Env of isolate REJ04541 (HIV-1)
[15] = biological target: HIV-1 Env of isolate CAAN (HIV-1)
[16] = biological target: HIV-1 Env of isolate DU156 (HIV-1)
[17] = biological target: HIV-1 JR-CSF Env I309A (pseudovirus) (HIV-1 JR-CSF) (UniProt P20871)
[18] = biological target: HIV-1 JR-FL Env E168K (pseudovirus) (HIV-1 JR-FL)
[19] = biological target: HIV-1 Env of isolate TR0.11 (HIV-1)
[20] = biological target: HIV-1 Env of isolate ZM233 (HIV-1)

B1: 1469_M23 (PG16) (TCN-118) (antibody, V domains shown)
VH: QEKLVESGGGVVQPGGSLRLSCLASGFTFHKYGMHWVRQAPGKGLEWVALISDDGMRKYHSDSMWGRVTISRDNSKNTLYLQFSSLKVEDTAMFFCAREAGGPIWHDDVKYYDFNDGYYNYHYMDVWGKGTTVTVSS
VL: QSALTQPASVSGSPGQTITISCNGTRSDVGGFDSVSWYQQSPGRAPKVMVFDVSHRPSGISNRFSGSKSGNTASLTISGLHIEDEGDYFCSSLTDRSHRIFGGGTKLTVLG
With B1 the IC50, pseudovirus neutralization (TZM-bl) [1] was 0.97 µg/mL, the IC50, pseudovirus neutralization (TZM-bl) [2] was < 0.01 µg/mL and the IC50 (ug/ml), neutralization [3] was 0.005 µg/mL. For the same binder, the IC50, pseudovirus neutralization (TZM-bl) [4] was < 0.01 µg/mL, the IC50, pseudovirus neutralization (TZM-bl) [5] was 7.01 µg/mL and the IC50 (ug/ml), neutralization [6] was 0.05 µg/mL. For the same binder, the IC50, pseudovirus neutralization (TZM-bl) [7] was 21.2 µg/mL, the IC50, pseudovirus neutralization (TZM-bl), control virus [8] was > 25 µg/mL and the IC50, pseudovirus neutralization (TZM-bl) [9] was > 25 µg/mL. The IC50, pseudovirus neutralization (TZM-bl) [10] was < 0.01 µg/mL, the IC50 (ug/ml), neutralization [11] was 0.002 µg/mL and the IC50 (ug/ml), neutralization [12] was > 1 µg/mL. For the same binder, the IC50, pseudovirus neutralization (TZM-bl) [13] was < 0.01 µg/mL, the IC50, pseudovirus neutralization (TZM-bl) [14] was 0.39 µg/mL and the IC50, pseudovirus neutralization (TZM-bl) [15] was 17.7 µg/mL. The IC50, pseudovirus neutralization (TZM-bl) [16] was < 0.01 µg/mL, the IC50 (ug/ml), neutralization [17] was > 1 µg/mL and the IC50 (ug/ml), neutralization [18] was 0.005 µg/mL. For the same binder, the IC50, pseudovirus neutralization (TZM-bl) [19] was 7.52 µg/mL and the IC50, pseudovirus neutralization (TZM-bl) [20] was < 0.01 µg/mL.
